Values of other authors as cited in paper PMC3742252.

Target: TSH (Bos taurus) (UniProt P01217)

- Kd: 1 nM
Substance: thyroid-stimulating hormone receptor (from UniProt Q8SPP9)
